Experimental data reported in PMC9296380, “Characterisation of recombinant GH 3 β-glucosidase from β-glucan producing Levilactobacillus brevis TMW 1.2112” (Antonie Van Leeuwenhoek, 2022).

Substrate: O=[N+]([O-])c1ccc(O[C@@H]2O[C@H](CO)[C@@H](O)[C@H](O)[C@H]2O)cc1
Assay: purified protein
Assay type: biochemical, Levilactobacillus brevis
Details: 50 mM PBS buffer pH 7, 37 °C, 0.01-20 mM substrate

B1: BglB (Levilactobacillus brevis) (protein)
chain: MDIERTLAELTLPEKAALVSGKNNWYTAAVDRLDLPALMMTDGPSGLRKQTNSGTTNINDAIQAITYPAAALSASTWNESLMHQLGEHLGIEARAEQVSLLLGPGVNMKRSPLGGRNFEYLAEDPLVAGKLGSAYVQGVQSQHVGVAVKHFAANNRENQRFTASSDMSERTLRELYLRTFEIIVKSAYPATIMTSYNKINGVLNSQNERLLRRILRDEWGFHGAVMSDWGAVANTVQALKAGLDLEMPGKGQASVNDIIRAVHTGELDEGTLNKAVRHLLHVVDDWLPADHAQPYDHAAHHQFARKLADDGIILLKNHEDELPLDPQTTGKVVVIGELAENPRFQGSGSSHVNPTKLVSPLDALADSGLKADYYPGYRLDQSETNGDLAEAALTAAKTADHVIIFAGYPETAESEGFDKASLMLPENQSDLIGSLAKANVHTTVVLQNGSAVEMPWIHSVAAVVETYLAGEAVGEATWDIITGAVNPSGHLTETFPRRLTDTPMAPTFGQDPHHEYYTEGIFMGYRYYDTHEMHVLFPFGHGLSYTTFEYTNLKLTQNERGATVTFDVTNTGARSGQAVPQLYIANHASHVPMPTKELRAFTKVAIAPGETETVTLALDRRDFSWWCEPKARWQADSGDYEVMIGESSRDIRLQVKLTMDFKNSPAPITTETYMAAIVKNPQLRDLFKQVVLAPEYAGPENFLATTDDQGSLQIFQDRMFMNMPLRAVVALGGPQALITDFITRANTLLRQ
notes: no signal peptide predicted; C-terminal His tag (stop codon removed, Myc region excised) from pBAD/Myc-His A; expressed in E. coli BL21, Ni-NTA purified; primer-encoded N-terminus MDIERTLAEL
Km: 220 µM
kcat: 59.58 s⁻¹
